Source: US20120107324A1 (published 2012)
Where a chain is given by its changes, count along the chain named.

B1: 1F2.2B7 (antibody, IgG4, V domains shown)
VH: QVQLVESGGGVVQPGRSLRLSCAASGFTFRSYGMHWVRQAPGKGLEWVAVIWYDGSNKYYADSVKGRFTISRDNSKNTLYLQMNSLRAEDTAMYYCARDGAARRGDYYYYHGMDVWGQGTTVTVSS
VL: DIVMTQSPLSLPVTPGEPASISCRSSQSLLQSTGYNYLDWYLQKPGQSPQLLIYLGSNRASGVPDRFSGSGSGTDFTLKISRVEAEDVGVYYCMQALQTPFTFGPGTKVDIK
notes: also called mAb 1F2.2B7
B2: 3F12.4A1 (antibody, IgG2, V domains shown)
VH: B1 VH with R30S, S56T, R87T, M93V, G100M, H111Y, Q118P
VL: DIVMTQSPLSLPVTPGEPASISCRSSQSLLNGIGYNFLDWYLQKPGQSPQLLIYLGSNRASGVPDRFSGSGSGTDFTLTISRVEAEDVGVYYCMHALQTPFTFGPGTKVDIK
notes: Isotype IgG2/k
B3: 2H12 (antibody, IgG4, V domains shown)
VH: B1 VH with R30S, S56T, N77T, M93V, H111Y
VL: B2 VL with N31R, I33H, N36S, F37Y, T79K, H95Q
notes: Identified as an IgG4/k antibody; also called MAb 2H12; 2H12 IgG4
B4: 4G3.3D11 (antibody, IgG4, V domains shown)
VH: B1 VH with T28I, R30S, S56T, M93V, H111Y
VL: B2 VL with N31H, I33T, N36S, F37S, T79K, Y92F, H95Q
notes: Isotype IgG4/k
B5: 7B1.3A1 (antibody, IgG4, V domains shown)
VH: B1 VH with I51L, Y59N
VL: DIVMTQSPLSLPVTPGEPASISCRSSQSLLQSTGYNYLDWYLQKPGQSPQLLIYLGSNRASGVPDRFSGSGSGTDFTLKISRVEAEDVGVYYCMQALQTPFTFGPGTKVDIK
notes: also called MAb 7B1.3A1
B6: 2G2.2B5 (antibody, IgG4, V domains shown)
VH: B1 VH with R30S, M93V, H111Y
VL: B2 VL with D1E, S26G, N31Q, G32S, I33T, Y35S, F37Y, D39A, T79K, H95Q
notes: Isotype IgG4/k
B7: IIA1 (antibody, V domains shown)
VH: QVQLKESGPGLVAPSQSLSITCTISGFSLTDYGVHWVRQPPGKGLEWLVVIWSDGSSTYNSALKSRMTIRKDNSKSQVFLIMNSLQTDDSAMYYCARHGTYYGMTTTGDALDYWGQGTSVTVSS
VL: QIVLTQSPAIMSASLGERVTMTCTASSSVSSNYLHWYQQKPGSAPNLWIYSTSNLASGVPARFSGSGSGTSYSLTISSMEAEDAATYYCHQYLRSPPTFGGGTKLEIK
B8: 2H12 IgG2 WT (antibody, V domains shown)
VH: B1 VH with R30S, S56T, M93V, H111Y
VL: B2 VL with N31R, I33H, N36S, F37Y, T79K, H95Q
B9: 2H12 Variant 1 (IgG2) (antibody, V domains shown)
VH: B1 VH with R30S, S56T, M93V, H111Y
VL: B2 VL with N31R, I33H, N36S, F37Y, T79K, H95Q

Target: T1, human α5β1 integrin (human, UniProt P08648 42-1049; P05556 21-798)
T1 sequence (P08648 42-1049, chain 1 of 2): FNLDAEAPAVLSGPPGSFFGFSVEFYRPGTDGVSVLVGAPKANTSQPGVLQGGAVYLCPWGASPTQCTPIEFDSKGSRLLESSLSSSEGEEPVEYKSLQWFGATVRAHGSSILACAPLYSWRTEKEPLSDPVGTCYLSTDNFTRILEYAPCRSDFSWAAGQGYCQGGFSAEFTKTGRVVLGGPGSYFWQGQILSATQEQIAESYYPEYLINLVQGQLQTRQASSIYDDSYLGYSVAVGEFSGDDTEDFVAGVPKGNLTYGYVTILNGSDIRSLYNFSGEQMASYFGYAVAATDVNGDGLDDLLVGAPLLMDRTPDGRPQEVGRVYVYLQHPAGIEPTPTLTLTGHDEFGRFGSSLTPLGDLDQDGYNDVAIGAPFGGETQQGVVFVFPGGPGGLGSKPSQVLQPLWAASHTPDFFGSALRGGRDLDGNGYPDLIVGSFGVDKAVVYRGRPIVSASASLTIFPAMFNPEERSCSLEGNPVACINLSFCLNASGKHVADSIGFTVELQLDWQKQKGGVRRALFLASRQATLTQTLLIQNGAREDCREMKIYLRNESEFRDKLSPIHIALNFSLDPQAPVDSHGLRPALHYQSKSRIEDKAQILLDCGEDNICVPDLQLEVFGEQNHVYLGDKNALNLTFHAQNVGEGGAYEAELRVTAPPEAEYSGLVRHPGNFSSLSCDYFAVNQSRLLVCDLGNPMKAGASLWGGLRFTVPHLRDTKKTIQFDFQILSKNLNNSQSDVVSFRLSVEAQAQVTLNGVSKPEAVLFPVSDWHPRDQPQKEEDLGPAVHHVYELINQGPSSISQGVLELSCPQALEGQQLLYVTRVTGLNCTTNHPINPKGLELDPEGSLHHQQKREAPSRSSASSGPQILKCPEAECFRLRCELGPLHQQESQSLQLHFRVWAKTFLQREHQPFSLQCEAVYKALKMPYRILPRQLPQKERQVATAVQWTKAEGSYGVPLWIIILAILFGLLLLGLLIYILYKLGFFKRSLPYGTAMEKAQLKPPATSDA
T1 sequence (P05556 21-798, chain 2 of 2): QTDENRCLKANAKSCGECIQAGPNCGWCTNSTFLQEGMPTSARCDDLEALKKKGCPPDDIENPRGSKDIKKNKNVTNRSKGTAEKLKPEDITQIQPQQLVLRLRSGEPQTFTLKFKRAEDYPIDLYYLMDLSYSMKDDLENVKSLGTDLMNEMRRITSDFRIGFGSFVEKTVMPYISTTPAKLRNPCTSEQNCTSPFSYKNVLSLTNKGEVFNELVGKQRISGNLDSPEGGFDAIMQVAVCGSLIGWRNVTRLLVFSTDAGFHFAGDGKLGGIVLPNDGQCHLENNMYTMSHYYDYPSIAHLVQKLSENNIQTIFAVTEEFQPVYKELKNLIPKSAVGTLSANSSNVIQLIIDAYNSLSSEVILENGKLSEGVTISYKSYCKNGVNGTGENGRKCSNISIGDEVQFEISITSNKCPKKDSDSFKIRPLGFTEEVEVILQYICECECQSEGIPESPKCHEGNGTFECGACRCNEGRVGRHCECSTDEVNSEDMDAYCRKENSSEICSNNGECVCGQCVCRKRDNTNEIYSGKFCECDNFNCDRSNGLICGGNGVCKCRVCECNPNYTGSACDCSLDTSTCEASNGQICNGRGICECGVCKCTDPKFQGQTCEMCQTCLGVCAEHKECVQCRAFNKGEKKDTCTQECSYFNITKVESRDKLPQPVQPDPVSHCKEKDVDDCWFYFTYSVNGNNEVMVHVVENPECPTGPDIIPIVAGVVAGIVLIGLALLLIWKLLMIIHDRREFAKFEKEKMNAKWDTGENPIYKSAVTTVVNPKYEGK
Assay: cell-based or functional assay

% Inhibition of cell adhesion, n = 1 (K562 on full length FN, supernatant 1 in 4)	% Inhibition of cell adhesion, n = 2 (K562 on full length FN, supernatant 1 in 4)	% Inhibition of cell adhesion, n = 3 (K562 on GST-FNIII(9-10), no pre-incubation, supernatant 1 in 4)	% Inhibition of cell adhesion, n = 4 (K562 on GST-FNIII(9-10), supernatant 1 in 10)	% Inhibition of cell adhesion, n = 5 (K562 on GST-FNIII(9-10), supernatant 1 in 10)	Binder
93%	102%	100%	98%	77%	B1
103%	100%	97%	93%	91%	B2
89%	100%	96%	92%	89%	B3
96%	99%	102%	100%	81%	B4
98%	100%	91%	93%	84%	B5
100%	102%	97%	82%	78%	B6

Target: T2, α4β1 integrin (UniProt P13612 34-1032; P05556 21-798)
T2 sequence (P13612 34-1032, chain 1 of 2): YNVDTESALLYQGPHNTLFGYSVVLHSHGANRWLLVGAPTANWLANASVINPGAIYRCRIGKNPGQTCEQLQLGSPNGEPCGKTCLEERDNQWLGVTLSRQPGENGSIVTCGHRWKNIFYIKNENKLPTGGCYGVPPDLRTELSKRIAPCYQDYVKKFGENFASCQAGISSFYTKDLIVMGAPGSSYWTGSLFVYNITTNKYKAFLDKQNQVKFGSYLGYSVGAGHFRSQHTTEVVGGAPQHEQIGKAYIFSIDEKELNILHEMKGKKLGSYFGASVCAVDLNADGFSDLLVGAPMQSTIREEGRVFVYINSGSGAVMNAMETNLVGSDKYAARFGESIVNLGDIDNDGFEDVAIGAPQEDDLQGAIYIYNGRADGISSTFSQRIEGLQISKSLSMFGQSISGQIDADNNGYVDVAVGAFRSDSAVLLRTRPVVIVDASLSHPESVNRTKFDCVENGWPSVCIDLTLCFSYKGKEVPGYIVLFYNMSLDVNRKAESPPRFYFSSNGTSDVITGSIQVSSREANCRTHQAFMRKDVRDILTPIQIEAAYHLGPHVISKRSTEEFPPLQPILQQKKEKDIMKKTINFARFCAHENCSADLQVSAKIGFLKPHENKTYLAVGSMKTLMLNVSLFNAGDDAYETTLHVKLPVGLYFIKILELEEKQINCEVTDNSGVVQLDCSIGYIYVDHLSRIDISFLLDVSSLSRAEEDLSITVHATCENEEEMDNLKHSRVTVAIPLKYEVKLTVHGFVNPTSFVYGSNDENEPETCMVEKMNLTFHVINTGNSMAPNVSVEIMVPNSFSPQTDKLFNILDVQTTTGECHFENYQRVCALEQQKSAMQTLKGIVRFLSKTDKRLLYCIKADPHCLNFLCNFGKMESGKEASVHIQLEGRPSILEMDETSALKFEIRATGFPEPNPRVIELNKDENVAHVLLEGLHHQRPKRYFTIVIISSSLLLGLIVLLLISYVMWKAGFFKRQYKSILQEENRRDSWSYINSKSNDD
T2 sequence (P05556 21-798, chain 2 of 2): as the sequence (P05556 21-798, chain 2 of 2) above
Assay: cell-based or functional assay

% Inhibition of adhesion, CS1 n = 1 (J6.77 Jurkat cells on GST-CS-1)	% Inhibition of adhesion, CS1 n = 2 (J6.77 Jurkat cells on GST-CS-1)	Binder
29%	22%	B1
33%	12%	B5
28%	-5%	B6

Target: T1, human α5β1 integrin
Assay: cell-based or functional assay
Remark: another data set of the same source

IC50 ng/mL (adhesion of K562 cells to GST-Fibronectin type III domains 9-10)	Binder
43.2 ng/mL	B3
60.2 ng/mL	B4
49.8 ng/mL	B5
16.7 ng/mL	B7

Target: T2, α4β1 integrin
Assay: cell-based or functional assay
Remark: another data set of the same source

Average % inhibition at 5 ug/ml (J6 cell adhesion to GST-CS-1)	Binder
-2%	B2
-7%	B5
-11%	B6

Target: T1, human α5β1 integrin
Assay: cell-based or functional assay
Remark: another data set of the same source

IC50 (read off the curve), adhesion of K562 cells to GST-fibronectin repeats 8-10	Binder
~0.2 µg/mL	B8
~0.2 µg/mL	B3
~0.2 µg/mL	B9

Target: T3, β1 chain (integrin β1) (human, UniProt P05556 21-798)
T3 construct: whole, on cells; also called b1; beta1
T3 sequence (P05556 21-798): as the sequence (P05556 21-798, chain 2 of 2) above
Assay: FACS on HT29 cells (no α5 chain, β1 chain present)
Description: (§1) To confirm the antibodies bind to the α5 chain or to the α5β1 heterodimer, binding to Human colon adenocarcinoma grade II cells (HT29 cells) was assessed by FACS. […] HT-29 cells were suspended in HBSS with 1% BSA and 1 mM final MnCL₂ at a concentration of 6×10⁵ cells/ml. 12.5 uL of the primary antibody was added to 37.5 ul of cells and the plate incubated on ice for 60 minutes. A range of negative controls were included as described previously (indicated as below). In addition as a positive control antibodies to αvβ6 (Mab2077, Chemicon), α5β1 (Mab1909, Chemicon) and αv (L230, Chemicon) were included. 100 uL of HBSS buffer was added to dilute primary antibody, the cells pelleted by centrifuging at 1500 rpm for 3 minutes and resuspended in 50 ul Goat anti-human IgG Fc Cy5 or Goat anti Mouse IgG Fc Cy5 secondary at 2 ug/mL. They were then incubated on ice for a further 7 minutes, and 100 uL of HBSS buffer was added to dilute secondary antibody. Finally cells were pelleted by centrifuging at 1500 rpm for 3 minutes, HBSS Buffer/secondary supernatant removed, washed twice in 100 ul of FACS buffer was added and the cells were resuspended and then read on a FACS Calibur HTS. Samples were analyzed using Cell Quest Pro software. The data is represented in Table 6 and confirm that the antibodies are selective for α5β1.

binding result	Binder
no binding	B1
no binding	B2
no binding	B4
no binding	B5
no binding	B6

Target: T4, Macaque α5β1 (Macaque)
T4 construct: whole, on cells; On macaque T-cells (from frozen PBMCs); also called monkey α5β1; monkey integrin
Assay: FACS on macaque T-cells; Goat anti Human IgG Fc Cy5 alone 3
Description: To determine whether the antibodies cross reacted to monkey integrin, binding to purified Macaque T-cells was assessed. Macaque PBMCs were previously purified from whole blood, and stored frozen. Macaque PBMCs were suspended in adhesion buffer with HBSS 1% BSA and 1 mM Mn2+ (“FACS buffer”), at a concentration of 4.8×10⁵ live cells per ml. 12.5 uL of the primary antibody was added to 37.5 ul of cells, and incubated at 4° C. for 1 hour. Positive and negative controls were included as indicated. 100 uL of FACs buffer is added to dilute out primary antibody, the cells washed and resuspended in the appropriate secondary at 2 ug/mL (50 uL) with 10 ug/mL 7AAD, and stained on ice for 7 minutes. 100 uL of FACs buffer was added and cells were washed twice in FACS buffer, finally the supernatant removed and the cells were resuspended in 100 uL of buffer.
Samples were read on HTS FACS machine and analyzed using Cell Quest Pro software. The data shown in Table 7 confirm that the antibodies cross react with monkey α5β1.

Geo Mean on Macaque T-cells IgG detection	Binder
9	B1
13	B2
10	B5
11	B6

Target: T3, β1 chain (integrin β1)
Assay: FACS on HT29 cells (α5 null, β1 present); cells alone 2.07, human secondary 2.8
Description: as §1

Binding Geomean	Binder
2.75	B1
3.61	B2
2.96	B3
3.06	B4
3.17	B5
3.03	B6

Target: T1, human α5β1 integrin
Assay: FACS titration on K562 cells expressing α5β1, 1 mM MgCl2 and 1 mM CaCl2, 4 °C, nonlinear 4-parameter fit; 95% CI ±61.4 pM
Description: To assess the affinity of the antibodies for α5β1, a FACS based KD analysis was employed. […] K562 cells expressing α5β1 were resuspended in filtered HBS buffer containing 1 mM MgCl₂ and 1 mM CaCl₂ at a concentration of approximately 2.5-6 million cells/mL. The cells were kept on ice. Serially diluted (2×) mAbs across 11 wells in a 96-well plate. All mAbs were diluted in HBS described above. Additional HBS and cells were added to each well so that the final volume was 300 μL/well and each well contained approximately 140,000-150,000 cells. The final molecular concentration range for each mAb was 2H12: 7.5 nM-[…]. Cells were incubated on a plate shaker for 5 hours at 4° C. and then were spun/washed 3× at 4° C. with HBS. […] The Mean Fluorescence (F) of 7000 “events” was determined using FACS Canto II HTS flow cytometry instrumentation. To calculate affinity, data was fitted nonlinearly to a plot of the Mean Fluorescence as a function of molecular mAb concentration with Scientist 3.0 software using the equation:
In this equation, F=mean fluorescence, LT=total molecular mAb concentration, P′=proportionality constant that relates arbitrary fluorescence units to bound mAb, M=cellular concentration in molarity, n=number of receptors per cell, B=background signal, and KD=equilibrium dissociation constant. […]

Kd	Binder
0.162 nM	B3
